Laboratory results reported in the DeepSol protein solubility set.

Experiment: soluble on expression in E. coli; label from the status in PepcDB or PDB records

Sequence	soluble on expression in E. coli
MKIAVVAANGKAGQLITKEAVERSLDVTAIVRSENKTVAHQVIQKDLFDLTKEDIAPFDVIVDAFGQMNKDKLNEHSQSLEHLSNLVSDSQKRLIIIGGAGSLYVDKAHTERLIDSPDMPEEVKPISMAQVKTFEEIKERDDVQWTFVCPAPDFQFDGEKTGAYKVSDDEVIGTHVSYADFAKAIVDEAMNPEHIQSRFAVFAKLEHHHHHH	soluble
MKIDLNCDLGEGFGVWQMGDDAAMMQIATSVNIACGFHAGDPDIMHATVKLAKQNGVAIGAHPGFRDLHGFGRRPVPGITAAEIENLVAYQIGALQAVAALAGHKVTHVKAHGALSNVACEDDMTARAIASAIKAVDPSLVFVVLANSKLMLAGEAAGLPLAHEVFADRAYEDDGNLVSRKKPGAVLHDPNEIAERVLRMAQDGAVVSVTGKVIKMRTDTVCIHGDTKGAVEIARGVRRKLEASGITVAPFAGTLEHHHHHH	soluble
MKIIKRSGSEVTFDISKIMAAVSKANMEVVHSERLSEEQIETISNNVESICKEMNRSLSVEEIQDLVENQIMNLRAFAVARKYITYRYKRALVRKSNST	not soluble
MKILPLALFIIPFLAGCGANNTPPQTPIPGEKTSAKLRTLETGAAAIQSRPPVDAISTYLDGFHFYSGDKNGQMEAHHYVTVLNEDVMQAVIYDGNTKNARLMGVEYIISERLFKTLPPEEKKLWHSHQYEVKSGSLVAPGLPQVADKALMSKIVNTYGKTWHTWHTDRDKTLPMGIPALMMGFTGDGQLDPALLADRDRRLGIDTQAIKRERQDLPEHPVVKGANAWEQGEVIQLQRVQGSGEHGRGDTAHFGTSEQSRQLEHHHHHH	soluble
MKIQLIAVGTKMPKWVEEGFQEYRRRFPHDMPLELVEITAGKRGKNADIARILQKEGEAMLAAVPKGNRIVTLDIPGKRWDTEELAVQLESWKLDGRDVSILIGGPEGLAPACKAAADQSWSLSPLTLPHPLVRVVMAESLYRAWSITTNHPYHRELEHHHHHH	soluble
MKIRVVSSKEEIDTLKLNEEIVHLAFRPSNKDIFKLILKCPEVKAIHIPSSYKRTISSSAQMYLSMQNIALLEGDVWGHRKDINEYSEVSEHVFDRIKELKEEGLSDEDTIEKLVRETRLSPDFVTFIISN	not soluble
MKISSIDSIFAAWDGSITEARRLQSDMAERIVLKDEPNLLSEPTLLAGFDVGFEDEGRTTRAAAVLMNAGDLRLLETHVVRVPTSMPYVPGLLSFRELPALLQALTQLSRIPALVFVDGHGIAHPRRLGIAAHFGLVTNLPCIGVAKKRLVGDFVEPGTAFGEHTPILLHGTQVGWALRSKMHCKPLIISPGHKVSLHSALTWTQRCLTGYRLPEPTRQADRLASRRGQKIVSDLPSLLLEHHHHHH	soluble
MKITKLETVRVAERTNLLWVLVHTDEGITGLGETFFGAETVETYVHEYIAPRVIGRDPLQIDLLAQDLVGYLGFRSSGAEVRGNSAFDIALWDIFGKATNQPIAQLLGGFSRREIRTYNTCAGTEYIKKATGQQTANYGLSGGKDYDDLNGFLHRADELAHSLLEDGITAMKIWPFDAAAEKTRGQYISMPDLKSALEPFEKIRKAVGDKMDIMVEFHSMWQLLPAMQIAKALTPYQTFWHEDPIKMDSLSSLTRYAAVSPAPISASETLGSRWAFRDLLETGAAGVVMLDISWCGGLSEARKIASMAEAWHLPVAPHDCTGPVVLCASTHLSLNAPNALVQESVRAFYKTWYRDLVTALPEVKNGMITVPPGAGLGMELHPDIEKTFTVSRRFSDAASI	not soluble
MKITVLGCGALGQLWLTALCKQGHEVQGWLRVPQPYCSVNLVETDGSIFNESLTANDPDFLATSDLLLVTLKAWQVSDAVKSLASTLPVTTPILLIHNGMGTIEELQNIQQPLLMGTTTHAARRDGNVIIHVANGITHIGPARQQDGDYSYLADILQTVLPDVAWHNNIRAELWRKLAVNCVINPLTAIWNCPNGELRHHPQEIMQICEEVAAVIEREGHHTSAEDLRDYVMQVIDATAENISSMLQDIRALRHTEIDYINGFLLRRARAHGIAVPENTRLFEMVKRKESEYERIGTGLPRPWLEHHHHHH	not soluble
MKIVCIGAAPTALGAAYRLNELKNEGNEAAQNAEIVLLEQEAIAGGLSCTVTDEKGFLWDMGGHITFNHNYPYYEKATQWAVDDWNKLARNCMVDMNYLYDKKGIHLVPYPAQFAVPLFPDEVKNRCLADLKERYENPQDGTTPDNFEEWVLQHFGPTILNTFFKPYTKKVWTVEPLKMSPNWVGSRVAKLPQEKLEELCSMDQAELANADFGWGPNSYFTFPTYGGTGNVWNSMAKKLPNEWFKFNNKVTGVDHKEKTVEILEKGQTEPTKMSYDVLLNTAPIDQLVNNTQITAPLDIVHNKVFIVGVGLRKPMTSFLEKFTWLYFPDREVPFFRVTILSRYGEVTPDGDKYWSVMCECARPIDDPITEEEMVKKTLDGLVIKDMITREAIESVYSITLPYGYPIPTPNRDRELARAHGELERHQIYSRGRFGGWKYEASNQDHCFIQGKEFIDRVILGEPEKLYKTGVPTIPRGAAALEHHHHHH	soluble
MKIVEALKANGVEVIITEKADVLIKNFENAHISYALSADEKTGVIFFGGFEEKMKAGLAEHHVAILKEEDVKENILLAYEHARRKSDVLFASSSASKTADIEGKTVFGMHGPRKFTVVLVVRK	not soluble
MKIVEVKHPLVKHKLGLMREQDISTKRFRELASEVGSLLTYEATADLETEKVTIEGWNGPVEIDQIKGKKITVVPILRAGLGMMDGVLENVPSARISVVGMYRNEETLEPVPYFQKLVSNIDERMALIVDPMLATGGSVIATIDLLKKAGCSSIKVLVLVAAPEGIAALEKAHPDVELYTASIDQGLNEHGYIIPGLGDAGDKIFGTK	soluble
MKIYCCLNTVGFFMDGCGVIPPDSKEITAEHWQSLLKSQAEGGVIDFSVFPPSIKEVIRTHDDEVADANFQKQMLISDATDFINSRQWQGKAALGRLKEDELKQYNLWLDYLEALELVDTSSAPDIEWPTPPAVQARLEHHHHHH	soluble
MKKALPNTKVTVKLRRSNYKEEWYLIIESYPVYKRGSKRASRVVESINRTISTPIWDKSSIARILPDGTFNYKPKRDLNGIIQCRSTIDQEACIYADNVRKLRQHEYDSAILYTDKENEIAAQNERSEQDFIKYFNRIISTRHPNSSDSIIVNWRRVGELLKMYSQGQPIPFKAISVKLLEDIKMFLLRAPMGGNKKGTISQNTASTYFSILKAGLKQAFIDEYLTVDISAKVKGITNIEKPRVALTMNEVQMLVDTPCKDDVLKRAFLFSILTGLRHSDIQTLKWKQIQQTSKGTWQAVVIQQKTKRPDYKPVIQQALQLCGIRPDDDEALVFEGLTDASWISRPLKVWIEASGIKKHITF	not soluble
MKKCNIMIVGVGGQGTLLASRIIGNVALKQNYDVKVSEVHGMSQRGGSVVTYVKIGDKVYSPIIEKGEADIIMAFEMLEALRWAEYLKEDGKLLVNEQKINPMPVIIGKEKYPENIMQMLKENYKNVISLDALKIARECKNIKAVNTVLIGLLAKVLEIDKEVWIESIKEVVPSKAVDVNLKAFEEGYSRG	soluble
MKKEQISTQFYEVNPHTMIIFPKKSGSIVYSEIYEVDSHYTSKFTPFELIKTSCNFFGSSYDGGRRNGIPKIKTSSQKDVFILLLYRRNSISVTNY	not soluble
MKKIGIIGGTTPESTLYYYKKYIEISREKFEKYFYPELIIYSINFKEFFQNPEGWEGRKKILINAAKALERAGAELIAFAANTPHLVFDDVQREVNVPMVSIIDAVAEEILKRGVRKVLLLGTKTTMTADFYIKTLEEKGLEVVVPNDEEKEELNRIIFEELAFGNLKNKEWIVRLIEKYRESEGIEGVILGCTELPLAIKQGDVSVEVFDSAEIHMRKLIELASE	soluble
MKKIIALMLFLTFFAHANDSEPGSQYLKAAEAGDRRAQYFLADSWFSSGDLSKAEYWAQKAADSGDADACALLAQIKITNPVSLDYPQAKVLAEKAAQAGSKEGEVTLAHILVNTQAGKPDYPKAISLLENASEDLENDSAVDAQMLLGLIYANGVGIKADDDKATWYFKRSSAISRTGYSEYWAGMMFLNGEEGFIEKNKQKALHWLNLSCMEGFDTGCEEFEKLTNGLEHHHHHH	not soluble
MKKLAILLVCAAMLASCNGLGGGSKDLKAENDSLLMELTQRNAELDEMMGTFNEVQEGFRKINAAESRVDLTRGTISENSATAKQQIASDIEFITKQMEENKAQIAKLQAMLKSSKNNSAQLKKAVESLTQELVAKTQRIEELQAELASKNIRIQELDAAVTGLTADKESLAAENEAKAKTVAEQDKAINSAWFVFGTKSELKTQKILEKGDVLKSADFNKDYFTQIDIRTTKEIKLYSKRAELLTTHPAKSYELVKDDKGQLTLKITNPKEFWSVSKYLVIQVK	not soluble
MKKLITALSLVLVSYASMAAQECSLDFVKSAPNSRYLYSDLGVVTDLKTGLTWMRCPVGMTWDMAQKACSGEAQKVTWQNALLTAEQIRNASGNHVLHNFADKKQWRLPNIKELVTLTERACFHPSMNGTAFESAYSLETGDLGSYIWSNTPGTDARQIMTFESVNGDVIGYSPEANQFSVLLVTDEDLEHHHHHH	not soluble
MKKLLFFLFTLVVLASGCGKKNTFTLEGSIKGLPSDTILVFYQEPDYKLDTILLSKGKFTYTITPDTFTIFSLLLGEKQILPIYADKGESVTLNGMVGKIEVKGKGENAQLAKHIQYLSTLENNKAAVMTAVDSLIKTNPSSYSNIYLIDKYYVQDSLPDYNHIDQLIKGLSGIIKDTPYIIELQNKLSEKKELTEHRYVSNISCTDKKGKTVNWNSVKGKYVLLDFWASWNKESIATQDSLVSVQKALKKDKFVIISLSLDLDKKEWMEKIIQRDTTQWKQVCDFKGWNNSIVKQQGITRIPANILIGPDKRVITQDIRGKELIDKVRQLTEQDKEKEKAAKEAERARKRQNKK	not soluble
MKKLMLGNEAVARGAYEAGVLVATAYPGTPSTEITEYISKYSEINSEWSVNEKVALEVGIGSAIAGARTIVSMKHVGLNVAADPLMTVAYTGINAGLLIVVADDPSMHSSQNEQDTRYYGMFAKIPVLEPSDSQECKDFVKLGFEISEKFDTPVILRLSTRVSHSQSLVELEEKESIELKPYD	not soluble
MKKLNFSELNWINTPENFSITENELVIHTSPDTDFWRGTYYGLEYNNAPGIVMRSEERFWTLKSKVAFESNMFFDQCGMLIYIDDNNWMKSGIEYQSNGYQQLFSVVTNNGFSDWAMTNLDRVTQTMYYRLSRRGNDFLLEHSADGKIFNMMRMFHMFQAYTTVQFGFFASSPGDSSFAAHFSEIEWTECLWDAHTSSRFLEHHHHHH	not soluble
MKKPNHSGSGQIRIIGGQWRGRKLPVPDSPGLRPTTDRVRETLFNWLAPVIVDAQCLDCFAGSGALGLEALSRYAAGATLIEMDRVVSQQLIKNLATLKAGNARVVNSNAMSFLAQKGTPHNIVFVDPPFRRGLLEETINLLEDNGWLADEALIYVESEVENGLPTVPANWSLHREKVAGQVAYRLYQHEAQGESDAD	not soluble
MKKVLLIVISILFGSVLVGCQMNESNKTQDKIQSITGSVAYRERIALPDNAVVTVYLQDVSLADAPATVIAKQNFITNGMQVPLEFNLAYDSRKIKASHRYSVSARIEVDGKLRFITDTHYGVITDPEATKHVPMMLIGVHGE	not soluble
